We go through eleven molecules from patent publication US20150132813A1, “BIOSYNTHETIC PATHWAYS, RECOMBINANT CELLS, AND METHODS” (REGENTS OF THE UNIVERSITY OF MINNESOTA, priority 2012, published 2015).

Data set [1] has as its target T1, 3-hydroxypropionaldehyde dehydrogenase AldH (Escherichia coli, UniProt P23883).
T1 sequence (P23883 1-495): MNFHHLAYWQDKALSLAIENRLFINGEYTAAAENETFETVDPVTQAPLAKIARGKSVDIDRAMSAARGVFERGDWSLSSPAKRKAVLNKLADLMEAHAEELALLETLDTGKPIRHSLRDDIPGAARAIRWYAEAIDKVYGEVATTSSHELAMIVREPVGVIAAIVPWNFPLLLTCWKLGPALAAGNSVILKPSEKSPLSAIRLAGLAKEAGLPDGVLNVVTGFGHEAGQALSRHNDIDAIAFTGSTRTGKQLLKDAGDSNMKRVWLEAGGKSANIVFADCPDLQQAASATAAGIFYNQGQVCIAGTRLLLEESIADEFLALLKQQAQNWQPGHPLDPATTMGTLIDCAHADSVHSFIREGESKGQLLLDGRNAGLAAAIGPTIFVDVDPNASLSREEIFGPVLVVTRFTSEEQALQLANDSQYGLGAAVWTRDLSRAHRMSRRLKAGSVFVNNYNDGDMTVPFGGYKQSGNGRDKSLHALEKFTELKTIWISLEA
In words: Enzymatic assay of AldH (NADH absorbance at 340 nm). The conditions noted are these: substrate of AldH; pH 8.0, 0.5 mM NAD+.

The test system of data set [2] is PA1 strain. In words: Shake flask fermentation for pentanoic acid production (PA1 strain with pIPA1, pIPA3 and a DC-DH plasmid), HPLC. The conditions noted are these: aldehyde dehydrogenase varied, wild-type KIVD as 2-ketoacid decarboxylase; 40 g/L glucose, 48 hours, 30° C.
Data set [3] concerns PA1 strain. In words: Shake flask fermentation for 2-methylbutyric acid production (PA1 strain with pIPA1, pIPA2 and a DC-DH plasmid), HPLC. The note with it: aldehyde dehydrogenase varied, wild-type KIVD as 2-ketoacid decarboxylase; 40 g/L glucose, 48 hours, 30° C.
Data set [4] deals with indolepyruvate decarboxylase (IPDC) (Salmonella enterica, UniProt H9L492). The data set can be described thus: Coupled enzymatic assay of IPDC (NADH absorbance at 340 nm). The note with it: substrate of IPDC, pH 6.8.
Another data set deals with CCC(C)C(=O)C(=O)O. In words: purified protein, by the assay type. The conditions noted are these: other: substrate of IPDC, coupled assay, pH 6.8.
Another data set deals with CCCCC(=O)C(=O)O. In words: purified protein, by the assay type. The note with it: other: substrate of IPDC, coupled assay, pH 6.8.
For data set [5], the system named is α-ketoglutaric semialdehyde dehydrogenase KDHba. The note with it: substrate of KDHba; from Xiong et al., Sci Rep 2012; cited from earlier work.
Substrate in data set [6]: CCC(C)C=O
The data set can be described thus: purified protein, by the assay type. The conditions noted are these: other: substrate of AldH, pH 8.0, 0.5 mM NAD+, 30.0 °C.

The kcat is the maximal rate divided by the concentration of active sites. Usually Km stands for the substrate concentration at which the rate is half of its maximum. In general, kcat/Km refers to the second-order rate constant that governs catalysis at low substrate concentration.

indolepyruvate decarboxylase (IPDC), sequence (H9L492 1-550): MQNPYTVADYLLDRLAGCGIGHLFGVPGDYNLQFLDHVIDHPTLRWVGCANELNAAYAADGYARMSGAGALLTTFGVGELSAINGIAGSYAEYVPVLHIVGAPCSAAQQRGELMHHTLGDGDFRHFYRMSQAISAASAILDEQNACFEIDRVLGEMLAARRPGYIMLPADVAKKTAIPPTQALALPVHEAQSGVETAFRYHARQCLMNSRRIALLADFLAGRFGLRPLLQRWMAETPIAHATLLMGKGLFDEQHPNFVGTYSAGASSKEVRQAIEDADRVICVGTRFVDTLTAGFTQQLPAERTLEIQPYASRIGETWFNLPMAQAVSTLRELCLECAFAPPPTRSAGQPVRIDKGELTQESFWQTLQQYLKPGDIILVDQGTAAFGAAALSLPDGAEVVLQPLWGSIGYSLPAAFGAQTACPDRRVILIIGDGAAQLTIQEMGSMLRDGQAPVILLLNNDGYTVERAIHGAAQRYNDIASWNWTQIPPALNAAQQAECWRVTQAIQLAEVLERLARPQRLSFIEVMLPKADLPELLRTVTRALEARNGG

With `CCC(C)C=O` (stereo not drawn) [2-Methyl butyraldehyde, 2-methyl butyraldehyde], in data set [1], the kcat amounted to 3.55 s⁻¹.

With “YdcW: γ-aminobutyraldehyde dehydrogenase YdcW from E. coli”, the pentanoic acid titer with PA1 strain [2] turned out to be 0.22 g/L. In the data set on PA1 strain [3], the 2-methylbutyric acid titer was determined as 0.23 g/L.

`CCCCC(=O)C(=O)O` [2-Ketocaproate, 2-ketocaproate]: the kcat in data set [4] was found to be 1.89 s⁻¹.

For the molecule “indolepyruvate decarboxylase (IPDC) (Salmonella enterica subsp. enterica serovar Typhimurium str. LT2)”, in the data set with CCC(C)C(=O)C(=O)O, the Km is on record as 0.85 mM, the kcat is 4.13 ± 0.21 s⁻¹ and the kcat/Km is 4860 M⁻¹ s⁻¹. In addition, in the data set with CCCCC(=O)C(=O)O, the Km amounted to 0.63 mM, the kcat was 1.89 ± 0.06 s⁻¹ and the kcat/Km is 3000 M⁻¹ s⁻¹.

Regarding `CC(C)C=O` [isobutyraldehyde], in data set [5], the Km was 34.5 mM.

With `CCC(C)C(=O)C(=O)O` (stereo not drawn) [2-Keto-3-methylvalerate, 2-keto-3-methylvalerate], in data set [4], the kcat was determined as 4.13 s⁻¹.

`CC(C)CC=O` [isovaleraldehyde]: in data set [5], the Km was 7.62 mM.

B1: Al dB: acetaldehyde dehydrogenase AldB from E. coli (protein, UniProt P37685 1-512, looked up)
Aldehyde dehydrogenase B: MTNNPPSAQIKPGEYGFPLKLKARYDNFIGGEWVAPADGEYYQNLTPVTGQLLCEVASSGKRDIDLALDAAHKVKDKWAHTSVQDRAAILFKIADRMEQNLELLATAETWDNGKPIRETSAADVPLAIDHFRYFASCIRAQEGGISEVDSETVAYHFHEPLGVVGQIIPWNFPLLMASWKMAPALAAGNCVVLKPARLTPLSVLLLMEIVGDLLPPGVVNVVNGAGGVIGEYLATSKRIAKVAFTGSTEVGQQIMQYATQNIIPVTLELGGKSPNIFFADVMDEEDAFFDKALEGFALFAFNQGEVCTCPSRALVQESIYERFMERAIRRVESIRSGNPLDSVTQMGAQVSHGQLETILNYIDIGKKEGADVLTGGRRKLLEGELKDGYYLEPTILFGQNNMRVFQEEIFGPVLAVTTFKTMEEALELANDTQYGLGAGVWSRNGNLAYKMGRGIQAGRVWTNCYHAYPAHAAFGGYKQSGIGRETHKMMLEHYQQTKCLLVSYSDKPLGLF
With B1, in the data set with PA1 strain [2], the pentanoic acid titer is listed as 0.42 g/L. In the data set with PA1 strain [3], this molecule showed a 2-methylbutyric acid titer of 2.31 g/L.

B2: GabD: succinate semialdehyde dehydrogenase GabD from E. coli (protein, UniProt P25526 1-482, looked up)
Succinate-semialdehyde …: MKLNDSNLFRQQALINGEWLDANNGEAIDVTNPANGDKLGSVPKMGADETRAAIDAANRALPAWRALTAKERATILRNWFNLMMEHQDDLARLMTLEQGKPLAEAKGEISYAASFIEWFAEEGKRIYGDTIPGHQADKRLIVIKQPIGVTAAITPWNFPAAMITRKAGPALAAGCTMVLKPASQTPFSALALAELAIRAGVPAGVFNVVTGSAGAVGNELTSNPLVRKLSFTGSTEIGRQLMEQCAKDIKKVSLELGGNAPFIVFDDADLDKAVEGALASKFRNAGQTCVCANRLYVQDGVYDRFAEKLQQAVSKLHIGDGLDNGVTIGPLIDEKAVAKVEEHIADALEKGARVVCGGKAHERGGNFFQPTILVDVPANAKVSKEETFGPLAPLFRFKDEADVIAQANDTEFGLAAYFYARDLSRVFRVGEALEYGIVGINTGIISNEVAPFGGIKASGLGREGSKYGIEDYLEIKYMCIGL
Consider B2, for which, in the data set on PA1 strain [2], the pentanoic acid titer is 0.54 g/L. This molecule registered a 2-methylbutyric acid titer with PA1 strain [3] of 0.14 g/L.

B3: PadA: phenylacetaldehyde dehydrogenase PadA from E. coli (protein, UniProt P80668 1-499, looked up)
Phenylacetaldehyde …: MTEPHVAVLSQVQQFLDRQHGLYIDGRPGPAQSEKRLAIFDPATGQEIASTADANEADVDNAVMSAWRAFVSRRWAGRLPAERERILLRFADLVEQHSEELAQLETLEQGKSIAISRAFEVGCTLNWMRYTAGLTTKIAGKTLDLSIPLPQGARYQAWTRKEPVGVVAGIVPWNFPLMIGMWKVMPALAAGCSIVIKPSETTPLTMLRVAELASEAGIPDGVFNVVTGSGAVCGAALTSHPHVAKISFTGSTATGKGIARTAADHLTRVTLELGGKNPAIVLKDADPQWVIEGLMTGSFLNQGQVCAASSRIYIEAPLFDTLVSGFEQAVKSLQVGPGMSPVAQINPLVSRAHCDKVCSFLDDAQAQQAELIRGSNGPAGEGYYVAPTLVVNPDAKLRLTREEVFGPVVNLVRVADGEEALQLANDTEYGLTASVWTQNLSQALEYSDRLQAGTVWVNSHTLIDANLPFGGMKQSGTGRDFGPDWLDGWCETKSVCVRY
For the molecule B3, in the data set with PA1 strain [2], the pentanoic acid titer was found to be 2.12 g/L. Further, the 2-methylbutyric acid titer with PA1 strain [3] is 2.26 g/L.

B4: 3-hydroxypropionaldehyde dehydrogenase AldH (Escherichia coli K-12) (protein)
chain: T1 sequence (P23883 1-495)
With B4, in data set [6], the Km is on record as 1.89 mM, the kcat was found to be 3.55 ± 0.17 s⁻¹ and the kcat/Km worked out at 1880 M⁻¹ s⁻¹. The pentanoic acid titer with PA1 strain [2] was 1.76 g/L. Further, in the data set on PA1 strain [3], the 2-methylbutyric acid titer came out at 2.51 g/L.
